T1: Fc fused hCD122 (monovalent) (human, UniProt P14784 27-240, limits assumed)
T1 construct: described only as Fc fused, monovalent
T1 sequence (looked up): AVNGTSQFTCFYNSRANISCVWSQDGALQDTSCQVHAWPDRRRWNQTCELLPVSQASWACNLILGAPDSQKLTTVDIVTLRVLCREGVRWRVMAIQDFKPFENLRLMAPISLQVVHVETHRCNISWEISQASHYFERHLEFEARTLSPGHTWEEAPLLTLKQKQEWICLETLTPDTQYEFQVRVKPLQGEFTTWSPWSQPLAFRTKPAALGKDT

T2: Fc fused hCD132 (monovalent) (human, UniProt P31785 23-262, limits assumed)
T2 construct: described only as Fc fused, monovalent
T2 sequence (looked up): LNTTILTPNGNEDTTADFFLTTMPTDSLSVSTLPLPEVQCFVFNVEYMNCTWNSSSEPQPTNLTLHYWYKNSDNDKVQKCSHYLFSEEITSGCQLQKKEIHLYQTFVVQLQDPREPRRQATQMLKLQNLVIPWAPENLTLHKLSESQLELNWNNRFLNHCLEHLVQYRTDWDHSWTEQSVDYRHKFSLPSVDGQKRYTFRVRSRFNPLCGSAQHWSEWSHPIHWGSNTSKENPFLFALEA

B1: DR638(DR229-DR587) (bispecific antibody)
chain: QVQLQESGGGLVQPGGSLRLSCTASGFSFSSYPMTWARQAPGKGLEWVSTIASDGGSTAYAASVEGRFTISRDNAKSTLYLQLNSLKTEDTAMYYCTKGYGDGTPAPGQGTQVTVSSGGGSQVQLQESGGGSVQVGGSLRLSCATSGDTKSIRCMGWFRQTPGKEREGIAAIDREGFATYADSVYDRFTIAQDNAQNTLYLEMNALKPEDTAMYYCAAQNMCRVVRGAMTGVDYWGKGTQVTVSSASHHHHHH
notes: DR229 VHH - GGGS - DR587 VHH - ASHHHHHH; also called anti-IL2Rb/g VHH2 DR638; non-PEGylated DR638
B2: DR638-PEG40K2a (bispecific antibody)
chain: B1 chain
modifications: one 40 KDa branched polyethylene glycol (mono-PEGylated, coupled with sodium cyanoborohydride at pH ~6.3; residue not stated)
notes: also called PEGylated DR638
B3: DR736(DR588-DR231) (bispecific antibody)
chain: QVQLQESGGGSVQVGGSLKLSCAASGYTYSSYYCMGWFRQAPGKEREGVAAIDSDGSTSYADSVKGRFTISQDDAKNTLYLQMNSLKPEDTAMYYCAASYEVVDCYPSGYGQDYWGKGTQVTVSSGGGSQVQLQESGGGSVQAGGSLRLSCTASGFTFDDREMNWYRQAPGNECELVSTISSDGSTYYADSVKGRFTISQDNAKNTVYLQMDSVKPEDTAVYYCAADFMIAIQAPGAGCWGQGTQVTVSSASHHHHHH
notes: DR588 VHH - GGGS - DR231 VHH - ASHHHHHH; also called anti-IL2Rb/g VHH2 DR736; non-PEGylated DR736

target: T1, Fc fused hCD122 (monovalent); assay: SPR, VHH dimer in the mobile phase, Fc fused hCD122 immobilized
Experimental: (§1) The affinity of the non-PEGylated and the PEGylated forms of DR638 and DR736 prepared in substantial accordance with the foregoing were evaluated by surface plasmon resonance with the VHH dimer molecule in the mobile phase and an immobilized Fc fused hCD122 and hCD132 monovalent and bivalent hCD122/hCD132 Fc construct.

First: B1
Second: B2
The Kd of the first is lower: < 0.5 nM for the first, ~1.1 nM for the second. The first binds more tightly here.

For B3, the Kd was ~21 nM.

target: T2, Fc fused hCD132 (monovalent); assay: SPR, VHH dimer in the mobile phase, Fc fused hCD132 immobilized
Experimental: as §1

First: B1
Second: B2
The Kd of the first is 33-fold lower: ~0.5 nM for the first, ~16.3 nM for the second. The first binds more tightly here.

B3 gave a Kd of ~6.5 nM.

From patent publication US20250333520A1 (SYNTHEKINE, published 2025)
